In patent US6596687B1, “Cell adhesion inhibitors” (Biogen, Inc., priority 1995, dated 2003):
Square brackets hold non-standard residues; d marks the D form. 2‑MPUB = not defined here

Tests used:
[1] = molecular target: T1, VLA-4 (alpha4beta1 integrin) (UniProt P13612 34-1032; P05556 21-798, limits assumed); test: Ramos/BSA-CS1 adhesion inhibition
T1 construct: whole, on cells; also called very late antigen-4; CD49d/CD29
Description: Following labelling, the cells were washed twice in assay buffer (24 mM TRIS, 137 mM NaCl, 2.7 mM KCl, pH 7.4, containing 0.1 BSA and 2mM glucose) to remove any cations originating from the culture medium. The cells were then resuspended in assay buffer to 4 ×10^6 cells/mL and 2 mM MnCl_2 was added to upregulate VLA4 on the surface of the cells.
Immediately prior to running the assay, we removed the BSA blocking solution from the 96-well plates and washed the wells with 100 μL of assay buffer. We then added to each well 25 μL of test cell adhesion inhibitory compound at 2×the final concentration and 25 μL of the labelled Ramos cells. […] Each concentration of compound was tested in triplicate. The compound and cells are allowed to incubate for 30 minutes at room temperature.
Percent binding is calculated by the formula: […]

[2] = molecular target: VLA-4 (alpha4beta1 integrin) (UniProt P13612); test: Ramos/BSA-CS1 adhesion inhibition
VLA-4 (alpha4beta1 integrin) (UniProt P13612), sequence (P13612 34-1032 limits assumed, chain 1 of 2): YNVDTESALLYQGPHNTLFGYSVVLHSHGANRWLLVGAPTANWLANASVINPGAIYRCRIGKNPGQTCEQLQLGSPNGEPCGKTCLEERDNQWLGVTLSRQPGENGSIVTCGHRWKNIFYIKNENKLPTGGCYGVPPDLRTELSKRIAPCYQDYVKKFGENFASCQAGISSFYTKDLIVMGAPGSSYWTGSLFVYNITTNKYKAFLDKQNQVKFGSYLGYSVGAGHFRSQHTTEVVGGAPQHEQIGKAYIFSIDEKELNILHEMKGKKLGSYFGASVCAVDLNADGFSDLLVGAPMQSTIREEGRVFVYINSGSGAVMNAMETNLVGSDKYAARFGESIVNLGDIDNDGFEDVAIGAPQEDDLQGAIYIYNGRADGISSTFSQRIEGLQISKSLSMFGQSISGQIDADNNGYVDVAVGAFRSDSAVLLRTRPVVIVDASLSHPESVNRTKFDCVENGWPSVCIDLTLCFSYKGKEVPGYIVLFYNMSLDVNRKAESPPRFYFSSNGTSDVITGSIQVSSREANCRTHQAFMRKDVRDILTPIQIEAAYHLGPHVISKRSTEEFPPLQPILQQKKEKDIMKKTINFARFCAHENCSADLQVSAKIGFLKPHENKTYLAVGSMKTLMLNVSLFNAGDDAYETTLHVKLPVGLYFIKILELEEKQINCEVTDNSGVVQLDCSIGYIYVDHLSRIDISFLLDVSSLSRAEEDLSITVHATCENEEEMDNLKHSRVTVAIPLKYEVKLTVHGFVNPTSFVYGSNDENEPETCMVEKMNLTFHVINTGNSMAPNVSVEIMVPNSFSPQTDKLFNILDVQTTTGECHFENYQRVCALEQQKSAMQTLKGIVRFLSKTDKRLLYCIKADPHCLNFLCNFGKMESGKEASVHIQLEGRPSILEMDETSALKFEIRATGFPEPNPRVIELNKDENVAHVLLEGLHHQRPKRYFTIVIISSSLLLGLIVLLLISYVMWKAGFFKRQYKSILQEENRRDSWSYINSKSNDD
VLA-4 (alpha4beta1 integrin) (UniProt P13612), sequence (P05556 21-798 limits assumed, chain 2 of 2, further chain): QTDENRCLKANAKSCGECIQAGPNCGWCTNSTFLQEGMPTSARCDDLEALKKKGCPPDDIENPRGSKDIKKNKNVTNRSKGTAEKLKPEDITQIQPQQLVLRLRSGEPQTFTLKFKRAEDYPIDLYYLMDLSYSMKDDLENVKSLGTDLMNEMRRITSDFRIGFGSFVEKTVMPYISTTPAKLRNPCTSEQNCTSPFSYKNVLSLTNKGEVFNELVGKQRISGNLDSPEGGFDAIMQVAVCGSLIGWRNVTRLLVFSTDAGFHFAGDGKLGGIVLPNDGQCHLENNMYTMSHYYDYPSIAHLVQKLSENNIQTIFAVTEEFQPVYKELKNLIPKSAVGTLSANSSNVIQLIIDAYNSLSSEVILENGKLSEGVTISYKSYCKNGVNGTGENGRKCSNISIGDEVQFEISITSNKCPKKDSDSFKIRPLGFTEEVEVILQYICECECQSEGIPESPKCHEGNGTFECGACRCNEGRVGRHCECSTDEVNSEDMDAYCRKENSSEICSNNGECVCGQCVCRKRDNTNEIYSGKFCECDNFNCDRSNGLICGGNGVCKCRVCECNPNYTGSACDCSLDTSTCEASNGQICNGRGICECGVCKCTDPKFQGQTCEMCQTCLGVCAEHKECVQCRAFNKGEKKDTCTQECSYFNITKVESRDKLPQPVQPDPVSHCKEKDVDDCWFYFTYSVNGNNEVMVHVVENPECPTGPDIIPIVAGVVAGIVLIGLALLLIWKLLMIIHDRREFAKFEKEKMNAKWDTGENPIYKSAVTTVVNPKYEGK

T1 sequence (P13612 34-1032 limits assumed, chain 1 of 2): as the sequence (P13612 34-1032 limits assumed, chain 1 of 2) above
T1 sequence (P05556 21-798 limits assumed, chain 2 of 2): as the sequence (P05556 21-798 limits assumed, chain 2 of 2, further chain) above

B1: Compound 338 (peptide)
peptide: LDVPST
HELM: PEPTIDE1{[Cc1ccccc1NC(=O)Nc1ccc(CC(=O)[*:2])cc1].L.D.V.P.S.T}$$$$V2.0
SMILES: Cc1ccccc1NC(=O)Nc1ccc(CC(=O)N[C@@H](CC(C)C)C(=O)N[C@@H](CC(=O)O)C(=O)N[C@H](C(=O)N2CCC[C@H]2C(=O)N[C@@H](CO)C(=O)N[C@H](C(=O)O)[C@@H](C)O)C(C)C)cc1
IC50 [1]: < 0.05 µM

B2: Compound 339 (peptide)
peptide: VLPD
HELM: PEPTIDE1{[Cc1ccccc1NC(=O)Nc1ccc(CC(=O)[*:2])cc1].V.L.P.D}$$$$V2.0
SMILES: Cc1ccccc1NC(=O)Nc1ccc(CC(=O)N[C@H](C(=O)N[C@@H](CC(C)C)C(=O)N2CCC[C@H]2C(=O)N[C@@H](CC(=O)O)C(=O)O)C(C)C)cc1
IC50 [1]: > 10 µM

B3: Compound 153 (peptide)
peptide: FLDV
HELM: PEPTIDE1{[O=C(c1ccccc1)[*:2]].F.L.D.V}$$$$V2.0
SMILES: CC(C)C[C@H](NC(=O)[C@H](Cc1ccccc1)NC(=O)c1ccccc1)C(=O)N[C@@H](CC(=O)O)C(=O)N[C@H](C(=O)O)C(C)C
IC50 [1]: > 10 µM

{2‑MPUPA}-LDVPS-OH [Compound 337]
IC50 [1]: < 0.05 µM

B4: Compound 341 (peptide)
peptide: LPVD
HELM: PEPTIDE1{[Cc1ccccc1NC(=O)Nc1ccc(CC(=O)[*:2])cc1].L.P.V.D}$$$$V2.0
SMILES: Cc1ccccc1NC(=O)Nc1ccc(CC(=O)N[C@@H](CC(C)C)C(=O)N2CCC[C@H]2C(=O)N[C@H](C(=O)N[C@@H](CC(=O)O)C(=O)O)C(C)C)cc1
IC50 [1]: > 10 µM

H-[dP][dV][dD][dL]-{2‑MPUB} (reading uncertain) [Compound 343]
IC50 [2]: > 10 µM
